This is an account of results in US20180030127A1 (APRILBIO, published 2018).

Test [1] has as its target T1, human serum albumin (human, UniProt P02768 25-609).
T1 construct: Bought protein; also called HSA; human SA
As to the kind of experiment: ELISA, purified soluble Fab on coated HSA, pH 7.4; human SA, pH 7.4. How it is done:
(§1) For the monoclonal phage ELISA, the recombinant phage was obtained from positive E. coli clones by phage rescue, and ˜10⁸ CFU/well were added to MaxiSorb ELISA plates (Nunc, Roskilde, Denmark) that were coated with 5 μg/ml HSA, RSA, MSA or BSA. The phage was allowed to bind to the antigens either at pH 6 or at pH 7.4 for 1 h at 37° C. A goat anti-human kappa L Ab-conjugated with HRPO (Sigma-Aldrich) was used as a secondary antibody. The binding signals were visualized with a TMB substrate (BD Science, San Jose, Calif., USA), and the absorbance at 450 nm was measured using an ELISA reader (Bio-Rad, Hercules, Calif., USA). The data represent the average of three experiments standard deviation. For the conventional ELISA, the various antigens [human SA, rat SA, mouse SA, monkey SA (Alpha diagnositic Intl., San Antonio, Tex., USA), canine SA (CUSABIO, Wuhan, Hubei, China). rabbit SA (Sigma-Aldrich), epidermal growth factor receptor (EGFR) (R&D systems, Minneapolis, Minn., USA), epithelial cell adhesion molecule (EpCAM) (R&D systems), IL-15 receptor a (IL-15Ra) (R&D systems), IL-10 (eBioscience, San Diego, Calif., USA), CD16a (R&D systems), c-MET (Sinobiological, Beijing, China)] at 5 μg/ml concentrations were immobilized on the microtiter plates, and the Fab molecules were allowed to bind to the antigens, and detected as above. […]

In test [2] the target is T2, rat serum albumin (rat, UniProt P02770 25-608).
T2 construct: Bought protein; also called RSA; rat SA
As to the kind of experiment: ELISA, purified soluble Fab on coated RSA, pH 6; rat SA, pH 6. On the procedure:
as §1
On the technique in general: An ELISA detects its analyte on a solid surface through an enzyme-linked reagent.

Test [3] concerns the target T3, bovine serum albumin (bovine, UniProt P02769 25-607).
T3 construct: also called BSA; bovine SA
As to the kind of experiment: monoclonal phage ELISA at pH 6, antigen coated at 5 ug/ml, anti-human kappa-HRPO, A450. On the procedure:
For the monoclonal phage ELISA, the recombinant phage was obtained from positive E. coli clones by phage rescue, and ˜10⁸ CFU/well were added to MaxiSorb ELISA plates (Nunc, Roskilde, Denmark) that were coated with 5 μg/ml HSA, RSA, MSA or BSA. The phage was allowed to bind to the antigens either at pH 6 or at pH 7.4 for 1 h at 37° C. A goat anti-human kappa L Ab-conjugated with HRPO (Sigma-Aldrich) was used as a secondary antibody. The binding signals were visualized with a TMB substrate (BD Science, San Jose, Calif., USA), and the absorbance at 450 nm was measured using an ELISA reader (Bio-Rad, Hercules, Calif., USA). The data represent the average of three experiments standard deviation. For the conventional ELISA, the various antigens [human SA, rat SA, mouse SA, monkey SA (Alpha diagnositic Intl., San Antonio, Tex., USA), canine SA (CUSABIO, Wuhan, Hubei, China). rabbit SA (Sigma-Aldrich), epidermal growth factor receptor (EGFR) (R&D systems, Minneapolis, Minn., USA), epithelial cell adhesion molecule (EpCAM) (R&D systems), IL-15 receptor a (IL-15Ra) (R&D systems), IL-10 (eBioscience, San Diego, Calif., USA), CD16a (R&D systems), c-MET (Sinobiological, Beijing, China)] at 5 μg/ml concentrations were immobilized on the microtiter plates, and the Fab molecules were allowed to bind to the antigens, and detected as above. To determine the concentration of soluble Fab or Fab-hGH fusion proteins, a sandwich ELISA was performed using a mouse anti-human IgG Fd mAb (AprilBio) as a capturing Ab and the goat anti-human kappa L chain pAb-HRPO conjugated (Sigma-Aldrich) as a detecting antibody. The human Fab fragment (Bethyl, Montgomery, Tex., USA) with a known concentration was used to draw the standard curve. For detecting the hGH domain, T-20, a goat pAb specific for the C-terminus of the hGH (Santacruz Biotechnology, Dallas, Tex., USA) and NYThGH, a mouse mAb specific for full-length hGH (Prospec, East Brunswick, N.J., USA) were used followed by a rabbit anti-goat IgG pAb-HRPO conjugated (Sigma-Aldrich) or a goat anti-mouse IgG pAb-HRPO conjugated (Sigma-Aldrich), respectively as a secondary antibody. A goat anti-human GCSF pAb (R&D Systems) was used to detecting the G-CSF domain, and a rabbit anti-human IFN-β pAb (PEPROTECH, Rocky Hill, USA) was used to detect the IFN-β domain.

The target of test [4] is T1, human serum albumin. The experiment in a line: ELISA, purified soluble Fab on coated HSA, pH 6; human SA, pH 6. On the procedure: as §1
The target of test [5] is T4, epithelial cell adhesion molecule (UniProt P16422 24-265).
T4 construct: also called EpCAM
T4 sequence (looked up): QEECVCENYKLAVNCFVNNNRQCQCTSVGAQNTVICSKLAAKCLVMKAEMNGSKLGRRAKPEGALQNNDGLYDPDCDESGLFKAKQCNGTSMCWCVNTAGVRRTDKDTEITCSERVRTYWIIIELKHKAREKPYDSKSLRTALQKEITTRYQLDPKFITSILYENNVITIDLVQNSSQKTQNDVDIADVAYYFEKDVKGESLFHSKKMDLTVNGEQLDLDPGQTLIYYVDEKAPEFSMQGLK
As to the kind of experiment: ELISA, soluble Fab, antigen coated at 5 µg/ml.

Test [6] addresses T2, rat serum albumin. As to the kind of experiment: ELISA, purified soluble Fab on coated RSA, pH 7.4; rat SA, pH 7.4. On the procedure: as §1
In test [7] the target is T2, rat serum albumin. The experiment in a line: biolayer interferometry (Octet RED), SL335 on AR2G biosensor, RSA in solution, pH 6.0. On the procedure: (§2) Real-time binding assays between the purified SL335 and the antigens (human SA, rat SA or mouse SA) were performed using biolayer interferometry with an Octet RED system (ForteBio, Menlo park, Calif., USA) as previously described except that AR2G (Amine Reactive Second-Generation) sensors were used (Costin et al., (2013) J Virol. 87, 52-66). Briefly, the predetermined concentration of SL335 was coupled to kinetics grade AR2G biosensors, and unbound Fab fragments were removed from the surfaces of the sensors by incubating in the kinetics buffer […]. […] The binding and dissociation kinetics were calculated using the Octet QK software package, which fit the observed binding curves to a 1:1 binding model to calculate the association rate constants. The association and dissociation rate constants were calculated using at least three different concentrations of human SA, rat SA or mouse SA. The equilibrium dissociation constants were calculated as the kinetic dissociation rate constant divided by the kinetic association rate constant.
(§3) Since SL335 was the best binder among four anti-human SA Fab clones, its cross-reactivity was further analyzed by ELISA. […] The binding affinities of SL335 to human SA, rat SA and mouse SA at pH 6 or pH 7.4 were further measured via biolayer interferometry by passing through different concentration of the antigens on biosensors that were coated with SL335 (see Table 6 below).
Background: In BLI a coated tip is dipped into the sample, and binding shifts an interference pattern.

For test [8], the target named is T1, human serum albumin. The experiment in a line: biolayer interferometry (Octet RED), SL335 on AR2G biosensor, HSA in solution, pH 7.4. How it is done: as §2, §3
The target in test [9] is T5, mouse serum albumin (mouse, UniProt P07724 25-608).
T5 construct: Bought protein; also called MSA; mouse SA
The experiment in a line: biolayer interferometry (Octet RED), SL335 on AR2G biosensor, MSA in solution, pH 7.4; the filing calls the data unreliable; pH 7.4; left out of Table 6 for lack of reliability. On the procedure: as §2
Since SL335 was the best binder among four anti-human SA Fab clones, its cross-reactivity was further analyzed by ELISA. […]

In test [10] the target is T1, human serum albumin. As to the kind of experiment: biolayer interferometry (Octet RED), SL335 on AR2G biosensor, HSA in solution, pH 6.0. How it is done: as §2, §3

T2 sequence (P02770 25-608 limits assumed): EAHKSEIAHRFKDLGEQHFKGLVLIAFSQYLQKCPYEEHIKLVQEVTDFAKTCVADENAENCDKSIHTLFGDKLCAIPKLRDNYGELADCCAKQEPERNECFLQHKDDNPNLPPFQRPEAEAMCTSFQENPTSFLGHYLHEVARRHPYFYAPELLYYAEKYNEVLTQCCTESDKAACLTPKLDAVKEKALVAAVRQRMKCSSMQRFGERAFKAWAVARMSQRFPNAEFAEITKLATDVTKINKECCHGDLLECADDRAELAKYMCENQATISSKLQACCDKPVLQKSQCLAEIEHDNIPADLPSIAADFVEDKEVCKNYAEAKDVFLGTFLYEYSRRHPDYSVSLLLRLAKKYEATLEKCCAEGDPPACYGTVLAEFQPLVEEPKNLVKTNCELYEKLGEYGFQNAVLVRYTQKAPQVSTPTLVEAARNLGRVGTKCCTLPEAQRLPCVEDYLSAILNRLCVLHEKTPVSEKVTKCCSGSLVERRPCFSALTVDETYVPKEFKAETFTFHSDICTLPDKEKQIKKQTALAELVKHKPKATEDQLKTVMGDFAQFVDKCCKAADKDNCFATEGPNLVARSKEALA
T3 sequence (P02769 25-607 limits assumed): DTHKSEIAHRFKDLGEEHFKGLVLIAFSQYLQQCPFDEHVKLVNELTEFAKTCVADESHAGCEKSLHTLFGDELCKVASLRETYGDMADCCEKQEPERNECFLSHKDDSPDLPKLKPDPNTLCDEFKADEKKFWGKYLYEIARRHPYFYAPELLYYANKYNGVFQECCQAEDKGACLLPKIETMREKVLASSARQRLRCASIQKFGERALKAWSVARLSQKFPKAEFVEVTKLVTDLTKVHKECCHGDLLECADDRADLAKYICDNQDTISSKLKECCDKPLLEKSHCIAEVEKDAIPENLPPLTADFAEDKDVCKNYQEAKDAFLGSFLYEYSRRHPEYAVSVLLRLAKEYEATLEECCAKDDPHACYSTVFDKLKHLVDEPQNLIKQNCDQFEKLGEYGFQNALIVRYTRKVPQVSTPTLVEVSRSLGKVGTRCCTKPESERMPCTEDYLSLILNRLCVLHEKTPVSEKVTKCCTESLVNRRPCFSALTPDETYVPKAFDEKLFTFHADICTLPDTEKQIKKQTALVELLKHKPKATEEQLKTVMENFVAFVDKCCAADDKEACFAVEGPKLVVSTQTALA
T5 sequence (P07724 25-608 limits assumed): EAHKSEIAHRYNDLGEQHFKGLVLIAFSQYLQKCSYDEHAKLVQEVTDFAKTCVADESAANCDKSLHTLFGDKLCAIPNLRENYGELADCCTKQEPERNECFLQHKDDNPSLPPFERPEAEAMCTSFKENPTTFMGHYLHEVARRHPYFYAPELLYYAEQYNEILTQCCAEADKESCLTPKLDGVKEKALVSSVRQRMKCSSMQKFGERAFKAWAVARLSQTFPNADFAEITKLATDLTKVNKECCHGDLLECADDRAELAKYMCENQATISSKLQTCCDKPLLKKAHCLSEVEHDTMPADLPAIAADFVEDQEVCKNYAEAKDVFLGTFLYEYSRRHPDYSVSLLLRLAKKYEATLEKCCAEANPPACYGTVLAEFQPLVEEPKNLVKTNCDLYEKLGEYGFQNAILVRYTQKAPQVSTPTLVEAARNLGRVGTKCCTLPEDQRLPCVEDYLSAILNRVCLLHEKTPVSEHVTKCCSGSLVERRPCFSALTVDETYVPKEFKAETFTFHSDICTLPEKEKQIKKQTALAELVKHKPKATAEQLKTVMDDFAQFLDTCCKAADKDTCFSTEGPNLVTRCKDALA

B1: SL335 (Fab, V domains shown)
VH: QVQLVQSGGGPVKPGGSLRLSCAASGFMFRAYSMNWVRQAPGKGLEWVSSISSSGRYIHYADSVKGRFTISRDNAKNSLYLQMNSLRAEDTAVYYCARETVMAGKALDYWGQGTLVTVSS
VL: ELVLTQSPGTLSLSPGETATLSCRASQSVGSNLAWYQQKPGQAPRLLIYGASTGATGVPARFSGSRSGTDFTLTITSLQPEDFATYYCQQYYSFLAKTFGQGTQLEIKR
notes: Human anti-serum albumin Fab in the classic form (VH+CH1 with Cys233, VL+CLk with Cys214); tested on phage and as soluble Fab purified from E. coli; also called SL335wt; SL335 Fab
With B1, the EC50 stood at 0.04 µg/mL in test [1], 0.4 µg/mL in test [2], 0.02 µg/mL in test [4] and 0.16 µg/mL in test [6]. In addition, the binding result in test [3] and in [5] was “no binding” each time. In addition, the Kd in test [7] was 122 nM; in test [8], 13 nM; in test [9], ~1600 nM; in [10], 8.68 nM. Further, the dissociation rate constant (koff) amounted to 0.00576 s⁻¹ in test [7], 0.00152 s⁻¹ in test [8] and 0.00155 s⁻¹ in test [10]. For the same molecule, the kon was 47100 M⁻¹ s⁻¹ in test [7], 117000 M⁻¹ s⁻¹ in test [8] and 179000 M⁻¹ s⁻¹ in test [10].

As usually defined, the EC50 is the concentration at which the effect is half-maximal. The low end stands for a more potent agent, the high end for a less potent agent. In general, Kd refers to the equilibrium constant for the complex coming apart. In general, koff refers to the rate constant with which the complex falls apart. Higher therefore signals a short-lived complex. In general, kon refers to a measure of how fast the partners come together.
